Values belong to the binder of their own block, whether it stands above or below them.
B5: isolated HtrA2-PDZ domain (residues 349–458) (domain or fragment, human, UniProt O43464 349-458, looked up)
chain: NSSSGISGSQRRYIGVMMLTLSPSILAELQLREPSFPDVQHGVLIHKVILGSPAHRAGLRPGDVILAIGEQMVQNAEDVYEAVRTQSQLAVQIRRGRETLTLYVTPEVTE
notes: HtrA2 (Omi), human mitochondrial serine protease, carboxy-terminal PDZ domain, residues 349-458 of the full-length protein of 458 residues; Constructs were either amino-terminally SUMO-His6-tagged (pET28b; tag removed with SENP1) or carboxy-terminally His6-tagged (pET21b); Isotope-labelled for NMR; also called ALVIT-PDZ; source: E. coli BL21 (λDE3), purified (Ni2+-HisTrap, gel filtration)

Columns and labels:
[1] = target: the molecule itself; test: SEC-MALS; HtrA2^S306A loaded at 5-7.5 mg/ml, Superdex Increase 200 10/300 GL, HBS pH 7.4, RT (~297 K), with 25 mM CaCl2; trimer to hexamer (fitted with the monomer-dimer equation); KD given as a lower limit
[2] = target: the molecule itself; test: SEC-MALS; HtrA2^S306A loaded at 4-7.5 mg/ml, Superdex Increase 200 10/300 GL, HBS pH 7.4, RT (~297 K), no added metal ions; trimer to hexamer (fitted with the monomer-dimer equation); KD given as a lower limit
[3] = target: T1, wild-type mature human HtrA2 (human); test: fluorescence cleavage assay (cleavage rate of H2Opt against DD-PDZOpt concentration, one-site binding model); apparent; 510 nM wild-type HtrA2 (monomeric concentration), 20 µM H2Opt, DD-PDZOpt varied, 20 mM HEPES pH 7.4, no EDTA, 2 mM CaCl2, 313 K; details: both partners purified
T1 construct: made from the S306A construct that the methods name HtrA2^133–458; also called wild-type HtrA2; Omi; source: E. coli BL21 (λDE3), purified (Ni-HisTrap, gel filtration)
T1 chain: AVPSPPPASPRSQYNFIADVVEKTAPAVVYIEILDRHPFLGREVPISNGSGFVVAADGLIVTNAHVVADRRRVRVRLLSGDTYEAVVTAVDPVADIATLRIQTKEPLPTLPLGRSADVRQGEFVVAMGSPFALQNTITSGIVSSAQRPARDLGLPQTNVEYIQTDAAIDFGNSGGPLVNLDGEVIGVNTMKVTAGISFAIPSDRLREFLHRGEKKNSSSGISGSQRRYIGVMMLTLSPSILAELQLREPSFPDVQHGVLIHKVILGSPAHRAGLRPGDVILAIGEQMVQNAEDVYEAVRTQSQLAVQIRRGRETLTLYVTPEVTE

[4] = target: T1, wild-type mature human HtrA2; test: fluorescence cleavage assay (cleavage rate of H2Opt against DD-PDZOpt concentration, one-site binding model); apparent; 510 nM wild-type HtrA2 (monomeric concentration), 20 µM H2Opt, DD-PDZOpt varied, 20 mM HEPES pH 7.4, no EDTA, 2 mM MgSO4, 313 K; details: both partners purified
[5] = target: T1, wild-type mature human HtrA2; test: fluorescence cleavage assay (cleavage rate of H2Opt against DD-PDZOpt concentration, one-site binding model); apparent; 510 nM wild-type HtrA2 (monomeric concentration), 20 µM H2Opt, DD-PDZOpt varied, 20 mM HEPES pH 7.4, 1 mM EDTA, 313 K; no additive; details: both partners purified
wild-type mature HtrA2 = target: T2, wild-type mature HtrA2 (human, UniProt O43464 134-458); test: cell-based or functional assay
T2 sequence (looked up): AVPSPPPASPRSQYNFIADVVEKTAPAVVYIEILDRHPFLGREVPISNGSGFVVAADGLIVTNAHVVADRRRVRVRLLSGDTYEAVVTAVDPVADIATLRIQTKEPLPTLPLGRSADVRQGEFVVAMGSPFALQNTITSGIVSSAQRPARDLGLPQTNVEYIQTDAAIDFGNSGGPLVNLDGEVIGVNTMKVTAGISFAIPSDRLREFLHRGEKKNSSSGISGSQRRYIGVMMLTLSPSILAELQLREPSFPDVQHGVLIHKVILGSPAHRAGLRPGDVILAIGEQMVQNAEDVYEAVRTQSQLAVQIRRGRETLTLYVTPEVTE

[6] = target: B5; test: NMR titration; DD-PDZOpt titrated to HtrA2-PDZ, 2D [15N,1H] and 2D [13C,1H] spectra (ALVIT methyl-labelled PDZ); line-shape analysis with TITAN, two-state ligand binding model; 298 K; details: both partners purified
[7] = target: the molecule itself; test: SEC-MALS; HtrA2-PDZ loaded at 100-800 µM, Superdex Increase 200 10/300 GL, HBS (20 mM HEPES, 150 mM NaCl) pH 7.4, RT (~297 K), with CaCl2; monomer to dimer; KD given as a lower limit
[8] = target: the molecule itself; test: SEC-MALS; HtrA2-PDZ loaded at 100-800 µM, Superdex Increase 200 10/300 GL, HBS (20 mM HEPES, 150 mM NaCl) pH 7.4, RT (~297 K), with CuCl2; monomer to dimer; KD given as a lower limit
[9] = target: the molecule itself; test: SEC-MALS; HtrA2-PDZ loaded at 100-800 µM, Superdex Increase 200 10/300 GL, HBS (20 mM HEPES, 150 mM NaCl) pH 7.4, RT (~297 K), with ZnSO4; monomer to dimer; KD given as a lower limit
[10] = target: the molecule itself; test: SEC-MALS; HtrA2-PDZ loaded at 100-800 µM, Superdex Increase 200 10/300 GL, HBS (20 mM HEPES, 150 mM NaCl) pH 7.4, RT (~297 K), with Mg2+ (+MgCl2 in the figure, MgSO4 in Supplementary Table 1); monomer to dimer; KD given as a lower limit
[11] = target: the molecule itself; test: SEC-MALS; HtrA2-PDZ in the presence of the activating peptide DD-PDZOpt; dimer to monomers
[12] = target: the molecule itself; test: SEC-MALS; HtrA2-PDZ in HBS (20 mM HEPES, 150 mM NaCl) pH 7.4 supplemented with Zn2+, compared with the non-supplemented buffer; dimer to monomers
[13] = target: the molecule itself; test: SEC-MALS; HtrA2-PDZ at a range of concentrations, Superdex Increase 200 10/300 GL, PBS pH 7.4, RT (~297 K); KD fitted assuming a fast monomer-dimer equilibrium; dimer to monomers; lower limit because the concentration range was limited by solubility
[14] = target: the molecule itself; test: SEC-MALS; HtrA2^S306A at increasing concentrations in HBS pH 7.4 without divalent ions; multimerization KD fitted assuming a fast monomer-dimer equilibrium

B1: full-length mature human HtrA2 without the active site serine (S306A) (enzyme, UniProt O43464 134-458, looked up)
chain: AVPSPPPASPRSQYNFIADVVEKTAPAVVYIEILDRHPFLGREVPISNGSGFVVAADGLIVTNAHVVADRRRVRVRLLSGDTYEAVVTAVDPVADIATLRIQTKEPLPTLPLGRSADVRQGEFVVAMGSPFALQNTITSGIVSSAQRPARDLGLPQTNVEYIQTDAAIDFGNAGGPLVNLDGEVIGVNTMKVTAGISFAIPSDRLREFLHRGEKKNSSSGISGSQRRYIGVMMLTLSPSILAELQLREPSFPDVQHGVLIHKVILGSPAHRAGLRPGDVILAIGEQMVQNAEDVYEAVRTQSQLAVQIRRGRETLTLYVTPEVTE
notes: human HtrA2 (Omi), mature form; the methods name the construct HtrA2^133–458; the SEC-MALS constants are of the trimer to hexamer step; also called HtrA2^S306A; MALVI^proS-HtrA2^S306A; source: E. coli BL21 (λDE3), purified (Ni-HisTrap, gel filtration)
Kd [1]: ≥ 490 µM
Kd [2]: ≥ 960 µM

Kd [3]: 1.53 µM
Kd [4]: 11.9 µM
Kd [5]: 27.9 µM
B2: DD-PDZOpt activating peptide (peptide)
peptide: DDGQYYFV
notes: source: synthetic peptide, bought: GenScript

apparent K_(D,app) of DD-PDZOpt from the H2Opt cleavage rate, with 2 mM Mg2+, as percent of that in standard assay buffer (wild-type mature HtrA2): ~50%
Kd [6]: 3.18 ± 0.9 µM
B3: DD-PDZOpt activating peptide (peptide)
peptide: DDGQYYFV
notes: as for B2

B4: isolated HtrA2-PDZ domain (residues 349–458) (domain or fragment, human)
chain: NSSSGISGSQRRYIGVMMLTLSPSILAELQLREPSFPDVQHGVLIHKVILGSPAHRAGLRPGDVILAIGEQMVQNAEDVYEAVRTQSQLAVQIRRGRETLTLYVTPEVTE
notes: human HtrA2 (Omi), PDZ domain, residues 349-458; also called HtrA2^349-458; ALVIT-PDZ; source: E. coli BL21 (λDE3), purified (Ni-HisTrap, SENP1 cleavage, gel filtration); not shown: 6xHis-SUMO, N-terminal, cleaved
Kd [7]: ≥ 9200 µM
Kd [8]: ≥ 4160 µM
Kd [9]: ≥ 250 µM
Kd [10]: ≥ 3520 µM

Binder: B5
Kd [11]: 10300 ± 2500 µM
fold increase of the propensity to dimerize with Zn2+ against the non-supplemented buffer [12]: ~50 fold
Kd [13]: ≥ 13000 µM

B6: full-length mature human HtrA2^133–458 S306A (enzyme, UniProt O43464 133-458, looked up)
chain: AAVPSPPPASPRSQYNFIADVVEKTAPAVVYIEILDRHPFLGREVPISNGSGFVVAADGLIVTNAHVVADRRRVRVRLLSGDTYEAVVTAVDPVADIATLRIQTKEPLPTLPLGRSADVRQGEFVVAMGSPFALQNTITSGIVSSAQRPARDLGLPQTNVEYIQTDAAIDFGNAGGPLVNLDGEVIGVNTMKVTAGISFAIPSDRLREFLHRGEKKNSSSGISGSQRRYIGVMMLTLSPSILAELQLREPSFPDVQHGVLIHKVILGSPAHRAGLRPGDVILAIGEQMVQNAEDVYEAVRTQSQLAVQIRRGRETLTLYVTPEVTE
notes: HtrA2 (Omi), human, mature form, residues 133-458 of the full-length protein of 458 residues, active site serine replaced (S306A); The purchased construct is named pET21b-HtrA2, and pET21b constructs are said to be carboxy-terminally His6-tagged; The purification text also describes removal of a SUMO-His6 tag; The introduction says that the mature protein lacks the 133 amino-terminal residues, …
Kd [14]: 500 to 1000 µM
